Results on 20 sequences are retold here after the DeepSol protein solubility set.

The data set in a line: soluble on expression in E. coli; label from the status in PepcDB or PDB records.
In the case of “MSLTAIKHVAISCRRALTKCAKIGHTTVSVSRSLRKLSPTAFKTLRQAIAKVGHLNIMGQKIRLNDRELAANKVIMAVKKEEISKGILDPSQFTPGQHIFKTLAEVQKSPIFNLIKGMPKGGALHAHDTALCSTDYLISLTYRKNLWICTAEEGCKAIAFRFSKEEPKEKPVKESIWEPMEEFRERRGEENVTKYLTRRFSMYPFSKFISNNQAWAHFMGIFILLDGLLCHAPIWAEYYYNALKEFAEDGVQYLELRSLLPPLYCIDGDMLTIRDTVAIYNSELERFRADHPDFIGSKLIYAPLRGVEPSVVEQYVKTAVELNKEFPNFMVGFDLVGQEELGRPLIDFVEPLLKMPEHINFYFHAGETNWFGSPIDENLVDAILLGTKRIGHGYALTKHPMMMRLAKLLGIAIEVCPVSNQVLQLGVDYRNHPAALLLAANVPIVISSDDPSFWHCAPLSHDFYFAFLGIAPMKADLRFLKSLAINSIRYSALVGEEKRVGYRKWQEKWDKWIDDVVEHKYCEGHHHHHH”, the “soluble on expression in E. coli” value is “not soluble”.
Take “MAAKVVLDFEKPLYELEEKLNEMRVYLKSGEVDSMSEGRAGLKREIESLEAKVESLRKTIYKNLTRWQKVQLARHPERPYTLDYIYMMMKDFVELSGDRNFGDDKAIIGGFARLEDESAGFSQSVMVIGHQKGRDTKSNLYRNFGMAQPEGYRKALRLMKLAEKFRKPVITLIDTPGAFPGIEAEERGQAEAIARNLYEMAALKVPVICVIIGEGASGGAIGIGVGDRILMAENAWYSVISPESCSSILWRSWNFKEQAAEALKLTADDLLAQGIIDRIVTEPLGGAHHNPEQMASTLKSILIEELQGLLTKDARTLVDERIAKFSGMGVWEES”: the “soluble on expression in E. coli” value is “not soluble”.
“MARMYRALTRDIEVTVDPYYLEEQSDPDDDRYVWGYKVVIANNSDVPVKLVNRYWHITDQNGQVDEVYGPGVVGEQPQLKPGDSYEYSSGCPLDTPSGLMFGHYEMETENGEVFNVTIPAFSLDSPGLMRVLNAAALEHHHHHH”: the “soluble on expression in E. coli” value is listed as “soluble”.
For the sequence “MGSDKIHHHHHHMIQKGLEGVKICESSICYLDGINGRLYYRGIPVEELAEKSTFEETAYFLWYGKLPTKSELEEFKRKMADYRELPAEALGILYHLPKNLHYIDVLKIFLSIHGSMDGNDEDLREKAIRVASVFPTILAYYYRYSKGKELIRPRKDLSHVENFYYMMFGERNEKIRLLESAFILLMEQDINASTFAALVIASTLSDLYSCIVGALGALKGPLHGGASEKVPPMLEEIGSEDRVEEFVQKCLKEKRKIMGFGHRVYKTYDPRAVFLKRVLQEHFPDSKLFRIASKLEEYIVSNKIKNIYPNVDLYSSVLFEELGFPRNMFTALFATARVVGWTAHVIEYVSDNKLIRPTSEYVGPMDVEYIPIERRDENG”, the “soluble on expression in E. coli” value is “not soluble”.
“MGSDKIHHHHHHNNDDDGTNKAQEIAGKYEGYSIGNCAMFTDYVMGEKSVATIVPNEDGTINVTYDSGSGEFKLNNIKVTSKTFEGSGQVELSMNDKPAGAKDFTLTGSIDEQQKLTLKVNVPSVMGGLTIEFIQGTLPISYHVSGTYNKEANLSVSVGSTTYPDITDCKVSIKRSSDDTVELTLKGLSNLNSSQTGRAMNLGDFTVTDVKVTSTDNSIFKIEGSINTTDTNNTPITGTLSGTVSNSETNITFTFKPGAMPIDITAMFKGKK”: the “soluble on expression in E. coli” value was “not soluble”.
The entry for “MEGFSLNQDRGSMQDALKQYKHGLGTFEQKMPLMGRKFNEFTEQCFAGNSLTEREKQLIALGIAINAQDEYCMIYHTKGCLDQGASEENILEAVSVAAAFGGGAAFSQGVTVVQQCIEEFGNTTH” is “soluble”; for “PFSFCRRIYLPTDLRSYPSVRNVLIHEQEHTRATHFVDLLIAEVACMLFWFNPFAWALKRDMQRNLEFLADRAVLLRGVSRREYQYELL” it is “not soluble”.
The entry for “MSLASVQDLGKVEQAAPAQKLTVTIALSLRDRDAAARYLQEVHTPSSPNYHKFLTPSEFRARYAPTEASLAKVAARLQAAGLSVKRIGSTLLQVSGPAATVQKAFGAEVHVFQNKSVVQGAAARYTAPVRASTPGIDLSDVQAVIGLDSRPHFRPHLRQLPSHLQASMDKSASAVTNGNAPGKWTVTDLARHYNITPLYNKGIHGQGATIGIVTLASFTPSDAFQYWSSIGLATDPNRLTVVDIDGGPGAPSDDGGSSETTLDVEQSGGIAPDAKIIVYQAPNTTQGFVDAFAKAIESNAADTLSVSWGEWEWFDQQSQAVNPVNGKSANVLQTYHDLFLQAALQGQTMFAASGDSGAYDVNRAAPLPQYNKVLSVDSPANQQFITAAGATTVPTTLTFHPNGKEMKIKIPTERAWGWDYLNGLCKALGKDPVACGTFPVGDGGGVSSFIGRPFYQNWLPGMQNSPAGQQLVDSSQNPPQVIATLPANFKGRNVPDISMNGDPETGYVVYYTSSKTGFSIQTNNGGTSFVAPQLAGITALLNQSLGGRLGLLNFSLYGLVATGHGYQGFGRHGAPLRDITAGNNWGYNAHRGYDQATGVGAPDVANLDAALRRYFWFEGHHHHHH” is “not soluble”; for “MSLNRLSIPYSNKSLDYYFFVIQEASVKRAVLARSGEFQATNANFDNTRQLEQWQSLLLSRPSAIISDPIDSQAIVSAIRRYNREKIPVGIIDTPADGGDVAITVSFDNFQGGVMAAEEIVNRLITRYGRPKGTVLNCYGALASVAWRLRKEGMDSVFAKYPGITYLARPTDGQLEKMLSVTLSTLSEYPDLDAVHAPSDSPSRGIVTALQQKGRWKKIGEAGHVIFVNIDGEPIALKWIQDGYMDACISQDPVAYGEIAVDMIVKHALKGEAVPLGTYQDKKYFWESGEGHHHHHH” it is “not soluble”; for “MGSDKIHHHHHHMRYSICYTPSARDPLSLAAASWLGRNVYSDEPVEHPGLAGLGLHEIAFHTALPRRNGFHGCLKAPFALHPEVSEAQLLRELMHFAGIVEPFALPGLEVAKLGDFCGLTLTHPSNQLDRVAALVVQNFDRFRAPLSDAEIERMAPERLSAPQFANLYRWGDPHVLDEYRFYMPLTGPLPLSHRDRLHQAATHYFAPLLQNPVVFANLALFIEREPGAPLVVHSLHPMGRVSARKIA” it is “not soluble”.
As for “MGSDKIHHHHHHMKIVFMGTPEFAAAHLKEIVESGNKVAGVFSQPDRPKGRGQKVEPTPVKTVATNYGIPVFQPEKINSDEGFEKLSELSPDIIVVVAFGKLLKSGVINLPTIGCFNVHASLLPKYRGAAPIQRAIENGETKTGITIFKIDEGMDTGAIALKRELEIHPSDSFGSLYLKLAELGKKTLVHFLERVKEGRLELAPQDGIPSFAPKIQPEDLVISDLSDAAKVVNKIRAYDPQPGARVSVEGRISKVFGASLKCRNEGKGIVGEIVKIDDRGMIVSCGAENVIISLVQFPGKKPMRPKDALSGRLISEGIILGG”, the “soluble on expression in E. coli” value is given as “not soluble”.
Consider “MAHHHHHHMEDAFAGSCVQSLFEPKADLSLCVNKSIKLFLKEVPIPPADSVDRADEQNSTDAKKEQRESALSENLSLLNGYAYFNRIKSNINLLHTELHGIKRDFLFQKKQTKKNIQKLKIVRKQNKIYQSVLQEIKKDRRRKETYELLCTEIQKLEEVNYLNKKQQMEKRDIEDLQQKMKDIENAIRINDENIQRTIQQISDIVSTNLQP”, for which the “soluble on expression in E. coli” value is “not soluble”.
On to “MAGDPMIMVNLRIINFIGDIMKIRGICYRCGAEDELIDGLCPICYAQEHPLIEVPDRVEIEVCHMCGSYKRKIWQTPKSEEAFEILNEIAYYATKDAIKKKSVMVEVEIYPEVTQLPGGKRSKLIIPVHIVARGRLPGEKEDRTYEKDIEVHLRMVQCPRCSRFMSNYYEATLQVRAMNRYLTEEEREELDNFVREELAKRLKKDRMAFIAKFIPQKEGLDYQLGSVGAARNVAQRIKEKYGGKITETATLVGVDRDSGKELYRVTVSVRVPEYKVGDVVEYKDKYYLVTAITEDKVYMKSIDYKREKIGLAWHIAEKETKMAKKKDELDTATVIATTPTIMVMDDKSYEVYEFDNIGDVKIKEGDKVKIFKKEGVSYLVNKIEGKDKQLEHHHHHH”, for which the “soluble on expression in E. coli” value is “soluble”.
Consider “MADTSPRESKLNKQDQDLHLEIDETGLACKSEVKKRWLGARGTAGLYGNGKYYYEVTITSKGLCRVGWATLGGSLNIGKGLDSFGYGGTGMKSTHKKFDDYGLPFTLNDVIGCYLDLDSRTIWWSKNGEQFPAAFSIDVKYKNSNTCLFPAVLCQNSSLSVNFGSQPFKFPPGNQFTAVSDAPNENVNWWSYEEQNSFEHVVVKLPFAVEEDVHNEFRMHTKLMLTELKRTQCKQDKDGSIRRTLQPISKTICAFLNTDGGRLFLGVNDDKVIKGISMSKNMIYHFFGSLRHMCENFKPCSPLCRIKVSILEVIPVGVIKVKLRKADLLKEEAHDFPKLACHSVGGSFCDCFLEINKAPTKQYLLIIQVSPPNPNSRTTIFQNEEGLVYRRRMASNKCVYLDDLRRMMNEKNQVFVDLPDEARAEIDSFSKFD”, for which the “soluble on expression in E. coli” value is reported as “not soluble”.
For “MAHHHHHHMANGVTANSMRVSVKAPDLGAFPLDHYRECKSEIEEYYTCLRSNDYVTPMCREQVRAYLQCRMDRGLMKPADIEGFGIPETEFVPMRQHRADIRQQWLRQKMNQVTAVWESYRRDDLNVPDGYERPRGSDSGGRPQPLPGETNKT”, the “soluble on expression in E. coli” value is “not soluble”.
Take “MDRGVAQVASAPALGAGGRWFKSSRPDHFFIEVDKALLKEVKDMPIYRYVCEECGYETTVMHGINESPEVICEECGAKMKRTIGRVGIIFKGSGFYITDSRKSEKKKEAASASSEKKD”: the “soluble on expression in E. coli” value is “not soluble”.
With “MSAKHPIIAVTGSSGAGTTTTSEAFRKMFNMMSIKPAWVEGDSFHRFTRPEMDVEIRKAREQGRHISYFGPQANDFPTLEEFFRQYGKVGTGQVRRYLHTFDEAVPYNQMPGTFTPWQSLPENSDVLFYEGLHGGVVDGDVNVAQHVDFLIGMVPIVNLEWIQKYVRDTRDRGHSREAVMDSIVRSMDDYLKFITPQFSRTHINFQRVPTVDTSNPLNAKGIPTLDESFVVIRFRGIKNVDFPYLLAMIDGSFMSRHNTIVVPGGKMSFAMDLIVRPLLQQLIETGKIG”, the “soluble on expression in E. coli” value is recorded as “not soluble”.
With “MSLGKGEKFQIEFVSANPTGDLHLGHARGAAIGDSLANIMKMAGFDVSREYYINDAGNQINNLVLSAEARYFEALGLDSEFPEDGYRGADIISLGKDLAAKYGDKYVHTSEEERRSVFRVDALAFETGKLRADLEEFRVSFDEWFSETSLYEENKVLPALERLRENGYIYEQDGATWLRTTDFEDDKDRVLIKSDGSYTYFLPDIAYHLNKLERGFDVLIDIWGADHHGYIPRMRAAIEALGYSPNQLEVEIIQLVHLFEDGVQVKMSKRTGKSVTMRDLIEEVGLDATRYFFAMRSSDTHMNFDMSLAKSTSNDNPVYYVQYAHARISSILRSGKEQGLEVTKDADMSLLQTEAEYDLLKVLGEFADVVAEAATKRAPHRIVRYLNDLASSFHRFYNSNKVLDMDNLEVTKARLALIKTAQITLRNGLTLLGVSAPEKEGHHHHHH”, the “soluble on expression in E. coli” value is on record as “not soluble”.
“MSLQITGVNQYHLEHRLEEPFHPTWIPGYPQSTHELELFEIETDAGITGYGASPSFAGGLDYETPLELFLTGEDPHNVDGILGKLETVNLVGPRPWHIEMALWDIIGKDAGKPVCELFGAEQRAIPAYASSGEIQPADERIDYVEQRIDEGFDAVKLRVTETDHIETVRAVRESFPDLTLMVDANKGWAVRVMEEPTEWSFSDALEFARELDAVGGVEWLEEPLHRHDYDGYARLRDAVDVNIAGGEFNNGIHHFREFVDRGSLDILQPDAALATGIRRAVDVARMGEANGLQFVPHTWTNAVGFAANLHVMTAVGSPWCEYPMEPPWTPDVWSFMLEDGFEHDDGVVRAPSKPGLGIEIPDKVLEDAGEGHHHHHH”: the “soluble on expression in E. coli” value is “soluble”.
As to “TVQCKVTLLDGTEYSCDLEKHAKGQVLFDKVCEHLNLLEKDYFGLLFQESPEQKNWLDPAKEIKRQLRNLPWLFTFNVK”, the “soluble on expression in E. coli” value is given as “not soluble”.
